# Experimental data as given in PMC4654454 (ACS chemical biology, 2015).
# T1: hORC1 BAH E127G (human, UniProt Q13415 45-171, E127G)
# T1 sequence: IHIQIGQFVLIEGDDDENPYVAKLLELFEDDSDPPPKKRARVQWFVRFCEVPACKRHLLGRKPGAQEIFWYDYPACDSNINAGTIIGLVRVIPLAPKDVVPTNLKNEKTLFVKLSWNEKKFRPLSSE
# T2: hORC1 BAH F89S (human, UniProt Q13415 45-171, F89S)
# T2 sequence: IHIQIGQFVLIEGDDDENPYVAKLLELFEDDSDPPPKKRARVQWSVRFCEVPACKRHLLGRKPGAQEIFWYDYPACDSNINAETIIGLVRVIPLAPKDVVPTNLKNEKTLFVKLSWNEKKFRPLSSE
# B1: 14-bp DNA duplex (dsDNA)
# DNA 1: GGAGGCCTCCTGCT
# DNA 2: AGCAGGAGGCCTCC
# Key:
# hORC1 BAH E127G = target: T1, hORC1 BAH E127G; assay: EMSA
# hORC1 BAH F89S = target: T2, hORC1 BAH F89S; assay: EMSA
binder,measurement,setting,value
B1,binding result,hORC1 BAH E127G,binds
same,binding result,hORC1 BAH F89S,binds
